Data on 125 sequences can be found in the supplement of paper PMC9112550, “Optimization of the antimicrobial peptide Bac7 by deep mutational scanning” (BMC Biology, 2022).
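Also: peptides expressed intracellularly from a pBAD plasmid library in pooled LB shake-flask culture, induced with 0.3% L-arabinose, DNA abundance read by NGS, three biological replicates, DESeq2 with apeglm shrinkage.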

The subject of the data set is Escherichia coli TOP10. The data set can be described thus: shrunken log2 fold change of peptide-encoding DNA abundance (4.5 h post-induction vs induction); higher = less antimicrobial activity (less host growth inhibition). To be noted: time post-induction: 4.5 h; library: site-saturation at positions 5, 18, 19, 20.
As for RRIRSRPPRLPRPRPRPVPMPRP, the “shrunken log2 fold change” value stood at 1.32.

On to RRIRMRPPRLPRPRPRPRQQPRP, for which the “shrunken log2 fold change” value came to 0.854. In the case of RRIRYRPPRLPRPRPRPNMFPRP, the “shrunken log2 fold change” value was -0.186.

RRIRFRPPRLPRPRPRPKHLPRP: the “shrunken log2 fold change” value was -0.0736.

As to RRIRFRPPRLPRPRPRPEHWPRP, the “shrunken log2 fold change” value was 0.0716. As to RRIRPRPPRLPRPRPRPIIDPRP, the “shrunken log2 fold change” value is -0.297. The result for RRIRHRPPRLPRPRPRPVYEPRP reads 0.015.

With RRIRMRPPRLPRPRPRPHRCPRP, the “shrunken log2 fold change” value was 0.15. Next, RRIRNRPPRLPRPRPRPFAAPRP: 0.0928; RRIRMRPPRLPRPRPRPEMVPRP: 0.0598; RRIRMRPPRLPRPRPRPWIGPRP: -0.0941. Regarding RRIRKRPPRLPRPRPRPQDRPRP, the “shrunken log2 fold change” value was determined as 0.201. On to RRIRDRPPRLPRPRPRPERQPRP, for which the “shrunken log2 fold change” value was -0.00783. RRIRRRPPRLPRPRPRPKDNPRP: the “shrunken log2 fold change” value worked out at 0.0969. For RRIRIRPPRLPRPRPRPQMKPRP, the “shrunken log2 fold change” value was -0.747. For RRIRHRPPRLPRPRPRPYHPPRP, the “shrunken log2 fold change” value is -0.00776. Consider RRIRARPPRLPRPRPRPSMTPRP, for which the “shrunken log2 fold change” value turned out to be 0.2.

Regarding RRIRERPPRLPRPRPRPPSIPRP, the “shrunken log2 fold change” value was -0.0171. For RRIRIRPPRLPRPRPRPWACPRP, the “shrunken log2 fold change” value was -0.406. For RRIRQRPPRLPRPRPRPLSSPRP, the “shrunken log2 fold change” value is -0.055. In the case of RRIRLRPPRLPRPRPRPVCIPRP, the “shrunken log2 fold change” value was -0.498. Next, RRIRERPPRLPRPRPRPHFVPRP: -0.0987; RRIRARPPRLPRPRPRPSGIPRP: 0.0311; RRIRKRPPRLPRPRPRPWDMPRP: 0.142. As to RRIRMRPPRLPRPRPRPYQIPRP, the “shrunken log2 fold change” value was -0.0607. Turning to RRIRKRPPRLPRPRPRPAMYPRP, the “shrunken log2 fold change” value worked out at 0.256.

RRIRYRPPRLPRPRPRPSCSPRP: the “shrunken log2 fold change” value is -0.972. As for RRIRARPPRLPRPRPRPGNPPRP, the “shrunken log2 fold change” value is 0.167.

RRIRPRPPRLPRPRPRPQNHPRP: the “shrunken log2 fold change” value stood at 0.181.

In the case of RRIRVRPPRLPRPRPRPKWFPRP, the “shrunken log2 fold change” value was -0.0567. Regarding RRIRNRPPRLPRPRPRPMDCPRP, the “shrunken log2 fold change” value worked out at 0.0919. Consider RRIRTRPPRLPRPRPRPGAYPRP, for which the “shrunken log2 fold change” value is -0.143. In the case of RRIRPRPPRLPRPRPRPIWDPRP, the “shrunken log2 fold change” value was -0.0628. With RRIRQRPPRLPRPRPRPWDTPRP, the “shrunken log2 fold change” value is 0.14. Regarding RRIRKRPPRLPRPRPRPDPDPRP, the “shrunken log2 fold change” value came out at 0.431. The result for RRIRPRPPRLPRPRPRPQLNPRP reads -0.0703; that for RRIRGRPPRLPRPRPRPALQPRP, 0.333. For the sequence RRIRRRPPRLPRPRPRPKNKPRP, the “shrunken log2 fold change” value worked out at 0.294. In the case of RRIRYRPPRLPRPRPRPALGPRP, the “shrunken log2 fold change” value is 0.0458. For RRIRIRPPRLPRPRPRPHEKPRP, the “shrunken log2 fold change” value was -0.123. Turning to RRIRFRPPRLPRPRPRPPNPPRP, the “shrunken log2 fold change” value was 0.412. As to RRIRTRPPRLPRPRPRPENPPRP, the “shrunken log2 fold change” value turned out to be 0.261. For RRIRIRPPRLPRPRPRPGRDPRP, the “shrunken log2 fold change” value was found to be 0.0442.

In the case of RRIRERPPRLPRPRPRPHEGPRP, the “shrunken log2 fold change” value was 0.127. The result for RRIRSRPPRLPRPRPRPESIPRP reads -0.397. Regarding RRIRRRPPRLPRPRPRPTWPPRP, the “shrunken log2 fold change” value worked out at 0.647. As for RRIRLRPPRLPRPRPRPDKTPRP, the “shrunken log2 fold change” value is -0.146. Regarding RRIRRRPPRLPRPRPRPGMMPRP, the “shrunken log2 fold change” value stood at 0.257. Turning to RRIRQRPPRLPRPRPRPHGTPRP, the “shrunken log2 fold change” value is -0.0865. Turning to RRIRVRPPRLPRPRPRPCIFPRP, the “shrunken log2 fold change” value was -0.0604. As to RRIRVRPPRLPRPRPRPQGSPRP, the “shrunken log2 fold change” value is -0.205. In the case of RRIRCRPPRLPRPRPRPNQEPRP, the “shrunken log2 fold change” value was -0.0562. As for RRIRGRPPRLPRPRPRPKRPPRP, the “shrunken log2 fold change” value came out at 0.969. With RRIRARPPRLPRPRPRPDLKPRP, the “shrunken log2 fold change” value was determined as 0.523. Next, RRIRLRPPRLPRPRPRPHSSPRP: 0.0594; RRIRPRPPRLPRPRPRPAFDPRP: 0.388; RRIRTRPPRLPRPRPRPMFHPRP: -0.52.

Consider RRIRMRPPRLPRPRPRPFLTPRP, for which the “shrunken log2 fold change” value amounted to 0.0674. In the case of RRIRCRPPRLPRPRPRPADYPRP, the “shrunken log2 fold change” value was -0.263. RRIRDRPPRLPRPRPRPVGKPRP: the “shrunken log2 fold change” value was determined as 0.0278. The result for RRIRVRPPRLPRPRPRPTTHPRP reads -0.0858; that for RRIRTRPPRLPRPRPRPKIIPRP, -0.211. For the sequence RRIRTRPPRLPRPRPRPHQSPRP, the “shrunken log2 fold change” value was -0.179. Regarding RRIRSRPPRLPRPRPRPSLRPRP, the “shrunken log2 fold change” value was -0.269.

Consider RRIRRRPPRLPRPRPRPPFVPRP, for which the “shrunken log2 fold change” value stood at 0.675. RRIRCRPPRLPRPRPRPRDAPRP: the “shrunken log2 fold change” value came out at 0.56. On to RRIRSRPPRLPRPRPRPCNAPRP, for which the “shrunken log2 fold change” value was -0.0263.

Take RRIRGRPPRLPRPRPRPDFYPRP: the “shrunken log2 fold change” value is 0.232. With RRIRWRPPRLPRPRPRPNHDPRP, the “shrunken log2 fold change” value is -0.193. RRIRIRPPRLPRPRPRPGVTPRP: the “shrunken log2 fold change” value was -0.0211. In the case of RRIRQRPPRLPRPRPRPVIKPRP, the “shrunken log2 fold change” value was -0.772. Next, RRIRARPPRLPRPRPRPREDPRP: 0.879. With RRIRGRPPRLPRPRPRPKSNPRP, the “shrunken log2 fold change” value came out at 0.446.

For the sequence RRIRLRPPRLPRPRPRPFCEPRP, the “shrunken log2 fold change” value was -0.157. RRIRMRPPRLPRPRPRPHYFPRP: the “shrunken log2 fold change” value was -0.0364. Next, RRIRRRPPRLPRPRPRPPWAPRP: 0.729. The result for RRIRMRPPRLPRPRPRPALVPRP reads 0.327; that for RRIRVRPPRLPRPRPRPTRSPRP, 0.17. In the case of RRIRMRPPRLPRPRPRPRDQPRP, the “shrunken log2 fold change” value turned out to be 0.776. The result for RRIRHRPPRLPRPRPRPMHVPRP reads -0.0591; that for RRIRWRPPRLPRPRPRPWVNPRP, -0.183; that for RRIRSRPPRLPRPRPRPCMWPRP, 0.0267. Consider RRIRTRPPRLPRPRPRPMCWPRP, for which the “shrunken log2 fold change” value is -0.0846. As to RRIRQRPPRLPRPRPRPKLMPRP, the “shrunken log2 fold change” value is -0.082.

For RRIRKRPPRLPRPRPRPGSTPRP, the “shrunken log2 fold change” value amounted to 0.131.

Consider RRIRYRPPRLPRPRPRPQSYPRP, for which the “shrunken log2 fold change” value was -0.0246. For RRIRHRPPRLPRPRPRPSHNPRP, the “shrunken log2 fold change” value was -0.433.

Consider RRIRDRPPRLPRPRPRPQTYPRP, for which the “shrunken log2 fold change” value was -0.24.

RRIRARPPRLPRPRPRPVVAPRP: the “shrunken log2 fold change” value is 0.604.

With RRIRPRPPRLPRPRPRPNCGPRP, the “shrunken log2 fold change” value was -0.0429. RRIRDRPPRLPRPRPRPTKFPRP: the “shrunken log2 fold change” value is 0.138. The result for RRIRHRPPRLPRPRPRPCDKPRP reads -0.113; that for RRIRYRPPRLPRPRPRPGYNPRP, -0.0489.

Take RRIRSRPPRLPRPRPRPHSCPRP: the “shrunken log2 fold change” value was -0.0203.

With RRIRMRPPRLPRPRPRPQRPPRP, the “shrunken log2 fold change” value is 0.389. For RRIRQRPPRLPRPRPRPWFNPRP, the “shrunken log2 fold change” value is -0.359.

Take RRIRHRPPRLPRPRPRPHFAPRP: the “shrunken log2 fold change” value was -0.101.

With RRIRERPPRLPRPRPRPILTPRP, the “shrunken log2 fold change” value was -0.337.

For RRIRWRPPRLPRPRPRPVYVPRP, the “shrunken log2 fold change” value is -0.231. In the case of RRIRVRPPRLPRPRPRPIPAPRP, the “shrunken log2 fold change” value came out at 0.000426.

Take RRIRCRPPRLPRPRPRPCYSPRP: the “shrunken log2 fold change” value is -0.379.

As to RRIRSRPPRLPRPRPRPNNIPRP, the “shrunken log2 fold change” value was -0.564. Take RRIRARPPRLPRPRPRPKDKPRP: the “shrunken log2 fold change” value was 0.0564. As to RRIRRRPPRLPRPRPRPQNWPRP, the “shrunken log2 fold change” value was 0.199. Consider RRIRMRPPRLPRPRPRPRHDPRP, for which the “shrunken log2 fold change” value was 0.659. As for RRIRNRPPRLPRPRPRPQLAPRP, the “shrunken log2 fold change” value was -0.123. As to RRIRSRPPRLPRPRPRPWIWPRP, the “shrunken log2 fold change” value is 0.341. RRIRYRPPRLPRPRPRPREQPRP: the “shrunken log2 fold change” value is -0.659.

Consider RRIRYRPPRLPRPRPRPVYWPRP, for which the “shrunken log2 fold change” value is -0.763. Consider RRIRIRPPRLPRPRPRPANEPRP, for which the “shrunken log2 fold change” value turned out to be 0.158. Take RRIRTRPPRLPRPRPRPCQNPRP: the “shrunken log2 fold change” value stood at 0.031.

For the sequence RRIRYRPPRLPRPRPRPLYSPRP, the “shrunken log2 fold change” value is -1.15. For RRIRDRPPRLPRPRPRPTHSPRP, the “shrunken log2 fold change” value was 0.177.

With RRIRFRPPRLPRPRPRPPSFPRP, the “shrunken log2 fold change” value is -0.259.

RRIRWRPPRLPRPRPRPHLYPRP: the “shrunken log2 fold change” value is -0.125.

For RRIRYRPPRLPRPRPRPSRFPRP, the “shrunken log2 fold change” value was -0.074. Turning to RRIRYRPPRLPRPRPRPSHYPRP, the “shrunken log2 fold change” value is -0.966. The result for RRIRMRPPRLPRPRPRPTYIPRP reads -1.08. Next, RRIRPRPPRLPRPRPRPWHTPRP: -0.087; RRIRSRPPRLPRPRPRPNYQPRP: -0.199; RRIRLRPPRLPRPRPRPETTPRP: 0.182. As for RRIRFRPPRLPRPRPRPSQCPRP, the “shrunken log2 fold change” value stood at 0.153. Consider RRIRPRPPRLPRPRPRPIKFPRP, for which the “shrunken log2 fold change” value is -0.908. RRIRRRPPRLPRPRPRPNPGPRP: the “shrunken log2 fold change” value was -0.035. Next, RRIRDRPPRLPRPRPRPQPWPRP: 0.11.
